Measurements published in US20230131339A1, “EPI-X4 BASED PEPTIDES AND DERIVATIVES THEREOF” (Universitaet Ulm, priority 2020, published 2023).
Where no end group is shown, it is not given here. [ ]: non-standard residue; d: D form. The star is where a group is joined. Stearoyl = CCCCCCCCCCCCCCCCCC(=O)*; Palmitoyl = CCCCCCCCCCCCCCCC(=O)*; Myristoyl = CCCCCCCCCCCCCC(=O)*

Molecular target: CXC chemokine receptor type 4 (CXCR4) (human, UniProt P61073 1-352)
Experiment: cell-based or functional assay

CXC chemokine receptor type 4 (CXCR4), sequence (P61073 whole entry): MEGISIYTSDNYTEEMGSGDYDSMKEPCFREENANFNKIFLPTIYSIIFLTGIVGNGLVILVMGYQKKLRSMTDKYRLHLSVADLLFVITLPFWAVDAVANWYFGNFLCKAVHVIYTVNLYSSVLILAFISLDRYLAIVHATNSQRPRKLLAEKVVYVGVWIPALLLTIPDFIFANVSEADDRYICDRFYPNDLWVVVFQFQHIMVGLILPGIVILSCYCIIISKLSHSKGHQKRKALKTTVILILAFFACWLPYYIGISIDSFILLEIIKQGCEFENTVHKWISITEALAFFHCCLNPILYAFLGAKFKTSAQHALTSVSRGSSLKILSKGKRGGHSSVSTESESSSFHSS

IVRWSHKVPCVS [JM#4]
IC50, HIV inhibition assay: > 150 nM

ILRWSRKVPSVS [JM#23]
IC50, HIV inhibition assay: > 150 nM

IIRWSRKMPCVS [JM#16]
IC50, HIV inhibition assay: > 150 nM

IVRWSKKMPCVS [JM#12]
IC50, HIV inhibition assay: > 150 nM

[dL]LRWSRKMPCVS (not fully specified (residue 7)) [JM#140]
IC50, HIV inhibition assay: 50 to 150 nM

ILRWSRKLPCVS (not fully specified (residue 7)) [JM#143]
IC50, HIV inhibition assay: > 150 nM
IC50, X4-HIV-1 inhibition assay: 5 nM
fold increase of anti-HIV-1 potency compared to WSC02: > 60 fold

MLRWSRKMPCVS [JM#27]
IC50, HIV inhibition assay: 50 to 150 nM

ILRWSRKVPC[dV]S [JM#15]
IC50, HIV inhibition assay: > 150 nM

IFRWSHKVPCVS [JM#11]
IC50, HIV inhibition assay: > 150 nM

GLRWSRKMPCVS [JM#31]
IC50, HIV inhibition assay: > 150 nM

IVRWSRKVPCVS [JM#3]
IC50, HIV inhibition assay: > 150 nM

IFRWSKKVPCVS [JM#2]
IC50, HIV inhibition assay: > 150 nM

ILRWSHKVPCVS [JM#9]
IC50, HIV inhibition assay: > 150 nM

ILRWSRKMPSVS [JM#24]
IC50, HIV inhibition assay: > 150 nM

IVRWSKKVP-NH2 [JM#106]
IC50, HIV inhibition assay: > 150 nM

Ac-SLRWSRKMPCVS [JM#25]
IC50, HIV inhibition assay: > 150 nM

[dF]LRWSRKMPCVS [JM#30]
IC50, HIV inhibition assay: > 150 nM

XMRWSRKMPCVS (d-G at position 1 (so in the source)) [JM#38]
IC50, HIV inhibition assay: > 150 nM

IVRWSKK-NH2 [JM#110]
IC50, HIV inhibition assay: > 150 nM

Ac-[dS]MRWSRKMPCVS [JM#33]
IC50, HIV inhibition assay: > 150 nM

XLRWSRKMPCVS (d-M at position 1) [JM#28]
IC50, HIV inhibition assay: > 150 nM
IC50, HIV-1 inhibition assay: 246 nM

Ac-SMRWSRKMPCVS [JM#32]
IC50, HIV inhibition assay: > 150 nM

ILRWSKKVPCVS [JM#1]
IC50, HIV inhibition assay: > 150 nM

MMRWSRKMPCVS [JM#34]
IC50, HIV inhibition assay: 50 to 150 nM

[dF]MRWSRKMPCVS [JM#37]
IC50, HIV inhibition assay: > 150 nM

IVRWSKKLPCVS [JM#5]
IC50, HIV inhibition assay: > 150 nM

IVRWSKKFPCVS [JM#7]
IC50, HIV inhibition assay: > 150 nM

[dM]MRWSRKMPCVS [JM#35]
IC50, HIV inhibition assay: > 150 nM

IVRWSKKIPCVS [JM#6]
IC50, HIV inhibition assay: > 150 nM

Ac-[dS]LRWSRKMPCVS [JM#26]
IC50, HIV inhibition assay: > 150 nM

ILRWSRKLPSVS [JM#122]
IC50, HIV inhibition assay: 50 to 150 nM

ILRWSRK(Lau)LPCVS [JM#214]
IC50, HIV inhibition assay: 50 to 150 nM

[dL]LRWSRKMPCVS [JM#29]
IC50, HIV inhibition assay: > 150 nM

MXRWSRKMPCVS (d-L at position 2) [JM#44]
IC50, HIV inhibition assay: > 150 nM

ILRWSRKVPCVS [JM#8]
IC50, HIV inhibition assay: 50 to 150 nM

[dL]MRWSRKMPCVS (ends and bridges not checked) [JM#36]
IC50, HIV inhibition assay: > 150 nM
IC50, HIV-1 inhibition assay: 206 nM

B1: JM#256 (peptide)
peptide: [dL]LRWSRK(Stearoyl)-NH2
modifications: N-terminus assumed
SMILES: CCCCCCCCCCCCCCCCCC(=O)NCCCC[C@H](NC(=O)[C@H](CCCNC(=N)N)NC(=O)[C@H](CO)NC(=O)[C@H](Cc1c[nH]c2ccccc12)NC(=O)[C@H](CCCNC(=N)N)NC(=O)[C@H](CC(C)C)NC(=O)[C@H](N)CC(C)C)C(N)=O
IC50, HIV inhibition assay: 50 to 150 nM

IVRWSKKVPC[dV]S [JM#14]
IC50, HIV inhibition assay: > 150 nM

IFRWSRKVPCVS [JM#10]
IC50, HIV inhibition assay: 50 to 150 nM

ILRWSRK(Myristoyl)-NH2 [JM#262]
IC50, HIV inhibition assay: 50 to 150 nM

ILRWSRK(Palmitoyl)MPCLS [JM#149]
IC50, HIV inhibition assay: 50 to 150 nM

IXRWSRKLPCVS (d-L at position 2) [JM#41]
IC50, HIV inhibition assay: > 150 nM

I[dL]RWSRKMPCVS [JM#42]
IC50, HIV inhibition assay: > 150 nM
